Data published in doi:10.1101/2025.02.20.639226, “In vitro reconstitution of minimal human centrosomes” (bioRxiv, 2025).

B1: mCherry::HSET (full-length, wild type) (natural protein, human, UniProt Q9BW19 1-673, looked up)
chain: MDPQRSPLLEVKGNIELKRPLIKAPSQLPLSGSRLKRRPDQMEDGLEPEKKRTRGLGATTKITTSHPRVPSLTTVPQTQGQTTAQKVSKKTGPRCSTAIATGLKNQKPVPAVPVQKSGTSGVPPMAGGKKPSKRPAWDLKGQLCDLNAELKRCRERTQTLDQENQQLQDQLRDAQQQVKALGTERTTLEGHLAKVQAQAEQGQQELKNLRACVLELEERLSTQEGLVQELQKKQVELQEERRGLMSQLEEKERRLQTSEAALSSSQAEVASLRQETVAQAALLTEREERLHGLEMERRRLHNQLQELKGNIRVFCRVRPVLPGEPTPPPGLLLFPSGPGGPSDPPTRLSLSRSDERRGTLSGAPAPPTRHDFSFDRVFPPGSGQDEVFEEIAMLVQSALDGYPVCIFAYGQTGSGKTFTMEGGPGGDPQLEGLIPRALRHLFSVAQELSGQGWTYSFVASYVEIYNETVRDLLATGTRKGQGGECEIRRAGPGSEELTVTNARYVPVSCEKEVDALLHLARQNRAVARTAQNERSSRSHSVFQLQISGEHSSRGLQCGAPLSLVDLAGSERLDPGLALGPGERERLRETQAINSSLSTLGLVIMALSNKESHVPYRNSKLTYLLQNSLGGSAKMLMFVNISPLEENVSESLNSLRFASKVNQCVIGTAQANRK
notes: HSET/KifC1, kinesin-14 motor protein, human; also called KifC1; HSET/KifC1; source: SF9 insect cells (baculovirus, FlexiBAC), purified (Ni-NTA)

What was measured:
[1] = target: GFP::CDK5RAP2 isoform B (full-length, wild type) (human) (UniProt Q96SN8); assay: partitioning into in vitro scaffolds, confocal fluorescence microscopy; 4-component asters: 167nm GFP::CDK5RAP2, 33nM mBFP::γ-TuRCs, 33nM mCherry::HSET, 13μM HiLyte-647-labeled α/β tubulin; 50mM KCl, 25mM HEPES, pH7.4, IgM+; no ATP·MgCl2; compared with 3-component asters
[2] = target: T1, GFP::CDK5RAP2 isoform B (full-length, wild type) (human, UniProt Q96SN8-4 1-1814); assay: partitioning into in vitro scaffolds, confocal fluorescence microscopy; GFP::CDK5RAP2 assemblies (120nM) induced with anti-CM2 IgM; mCherry, full-length or ΔIDR mCherry::HSET at 50nM; 50mM KCl, 25mM HEPES; partition coefficient; settings: both partners purified
T1 construct: CDK5 regulatory subunit-associated protein 2 (CDK5RAP2/CEP215), human, isoform B, Protein ID Q96SN8-4, lacking a.a; 1576-1654 of the longest isoform; Stood in the assays as micron-scale assemblies nucleated by an anti-CM2 IgM; also called CEP215; GFP::CDK5RAP2 scaffolds; source: SF9 insect cells (baculovirus, FlexiBAC), purified (Ni-NTA, MBP trap beads, eluted with PreScission protease)
T1 sequence (Q96SN8 other isoform, or with tags, fused parts or gaps): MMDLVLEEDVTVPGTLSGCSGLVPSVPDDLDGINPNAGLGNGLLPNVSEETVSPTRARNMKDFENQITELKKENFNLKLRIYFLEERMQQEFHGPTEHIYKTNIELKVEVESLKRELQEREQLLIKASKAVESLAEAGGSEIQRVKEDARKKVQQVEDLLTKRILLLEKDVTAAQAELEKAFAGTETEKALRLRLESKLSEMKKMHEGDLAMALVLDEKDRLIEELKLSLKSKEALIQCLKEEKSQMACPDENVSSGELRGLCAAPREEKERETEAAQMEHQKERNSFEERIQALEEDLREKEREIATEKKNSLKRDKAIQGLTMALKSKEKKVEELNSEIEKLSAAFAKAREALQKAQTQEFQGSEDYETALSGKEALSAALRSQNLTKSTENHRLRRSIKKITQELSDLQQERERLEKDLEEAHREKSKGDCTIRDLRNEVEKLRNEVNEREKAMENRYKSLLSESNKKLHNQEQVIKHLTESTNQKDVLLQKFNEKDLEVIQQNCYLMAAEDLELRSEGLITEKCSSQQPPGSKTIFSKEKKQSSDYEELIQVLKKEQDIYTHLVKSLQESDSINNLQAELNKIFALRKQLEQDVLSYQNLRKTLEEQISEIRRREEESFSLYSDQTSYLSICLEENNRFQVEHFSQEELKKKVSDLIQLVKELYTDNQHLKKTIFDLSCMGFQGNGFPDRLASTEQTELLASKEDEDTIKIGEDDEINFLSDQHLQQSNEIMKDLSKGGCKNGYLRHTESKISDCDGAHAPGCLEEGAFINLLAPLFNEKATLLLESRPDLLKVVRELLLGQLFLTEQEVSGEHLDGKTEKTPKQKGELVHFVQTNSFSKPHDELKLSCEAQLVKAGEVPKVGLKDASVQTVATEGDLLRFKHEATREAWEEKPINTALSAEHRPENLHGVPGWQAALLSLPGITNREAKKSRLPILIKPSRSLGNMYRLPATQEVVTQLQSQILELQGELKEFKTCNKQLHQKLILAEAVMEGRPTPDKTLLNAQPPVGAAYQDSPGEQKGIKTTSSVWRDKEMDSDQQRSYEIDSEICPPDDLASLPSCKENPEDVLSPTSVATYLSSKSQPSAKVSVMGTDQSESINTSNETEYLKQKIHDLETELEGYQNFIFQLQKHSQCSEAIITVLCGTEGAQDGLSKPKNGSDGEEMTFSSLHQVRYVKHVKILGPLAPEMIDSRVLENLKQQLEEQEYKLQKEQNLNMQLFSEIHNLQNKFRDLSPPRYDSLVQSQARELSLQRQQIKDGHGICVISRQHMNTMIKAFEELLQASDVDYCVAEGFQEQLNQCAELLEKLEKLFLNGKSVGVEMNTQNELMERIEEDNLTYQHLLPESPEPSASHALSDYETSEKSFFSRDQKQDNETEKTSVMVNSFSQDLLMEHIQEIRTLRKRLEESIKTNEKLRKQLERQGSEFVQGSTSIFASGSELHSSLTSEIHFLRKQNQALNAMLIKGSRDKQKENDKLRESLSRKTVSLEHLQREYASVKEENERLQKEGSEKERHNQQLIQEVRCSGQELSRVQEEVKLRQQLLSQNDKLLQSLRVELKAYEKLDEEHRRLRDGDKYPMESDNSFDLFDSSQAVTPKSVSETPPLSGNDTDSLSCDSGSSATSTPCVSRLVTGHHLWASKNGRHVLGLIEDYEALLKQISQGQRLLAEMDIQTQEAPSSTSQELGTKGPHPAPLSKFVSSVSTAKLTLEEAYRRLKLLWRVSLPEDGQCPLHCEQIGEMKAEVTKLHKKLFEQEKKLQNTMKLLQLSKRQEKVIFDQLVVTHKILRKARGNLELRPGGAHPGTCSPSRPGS

GFP::CDK5RAP2 isoform B (full-length, wild type) (human), sequence (Q96SN8 other isoform, or with tags, fused parts or gaps): as above

| Molecule | fold more recruited into scaffolds in the presence of mCherry::HSET (4-component against 3-component) [1] | binding result [2] |
| --- | --- | --- |
| human gamma tubulin ring complex tagged with blue fluorescent protein (mBFP::γ-TuRC) (from UniProt P23258 1-451) | 1.4 fold |  |
| B1 |  | binds |
